{
  "source": "the RNAGym collection of RNA variant scans (doi:10.1073/pnas.2313332121)",
  "parents": {"B1": {"name": "TPR 5TU (parent)", "chain": "GGAUCUUCUCGAUCUAACAAAAAAGACAAAUCUGCCACAAAGCUUGAGAGCAUCUUCGGAUGCAGAGGCGGCAGCCUUCGGUGGCGCGAUAGCGCCAACGUUCUCAACUAUGACACGCAAAACGCGUGCUCCGUUGAAUGGAGUUUAUCAUG"}},
  "note": "This sample holds only a part of the variants without activity.",
  "data": [
    {"variants_of": "B1", "assay": "polymerase ribozyme fitness, log enrichment relative to wild type (log ratio); higher = more active; in vitro selection for triplet polymerase activity", "procedure,_shortened": "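For each subunit of a heterodimeric triplet polymerase ribozyme, a mutant library was built by PCR and transcribed, then taken through a single in vitro selection round in triplicate. Selection involved annealing to a biotinylated primer, the partner subunit and triplets, incubation frozen at −7 °C, gel excision of extended constructs, capture on streptavidin beads and RT-PCR. Genotypes were retained after Illumina sequencing of inputs and outputs only with ≥10 input reads and ≥1 read in each output. Fitness is defined as the logarithm of a genotype's enrichment relative to wild-type enrichment, using inverse-variance-weighted averages across replicates, with the logarithm taken to base 2.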", "values": [
      {"variant": "GGAUCUUCUCGAUCUAACAAAAAAGACAAAUCUGCCACAAAACUUGAGAGCAUCUUCGGAUGCAGAGGCGGCAGCCUGCGGUGGCGCGAUAGCGCCAACGUUCUCAACUAUGACAAGCAAAACGGGUGCUCCGUUGAAUGGAGUUUAUCAUG", "note": "[G42A U78G C116A C125G]", "polymerase ribozyme fitness (log ratio)": "≤ -4.2"},
      {"variant": "GGAUCUUCUCGAUCUAACAAAAAAGACAAAUCUGCCACAAAACUUGAGAGCAUCUUCGGAAGCAGAGGCGGCAGCCUUCGGUGCCGCGAUAGCGCCAACGUUCUCAACUAUGACACGCAAAACGCGUGCUCCUUUGAAUGGAGGUUAUCAUG", "note": "[G42A U61A G84C G133U U144G]", "polymerase ribozyme fitness (log ratio)": "≤ -4.2"},
      {"variant": "GGAUCUUCUCGAUCUAACAAAAAAGACAAAUCUGCCACAAACCUUGAGAGCAUCUUCGGUUGCAGAGGCGGCAGCCUUCGGUGGCGCGAUAUCGCCAACGUUCUCAACUAUGACACGCUAAACGAGUGCUCCGUUGAAUGGAGUUUAUCAUG", "note": "[G42C A60U G92U A119U C125A]", "polymerase ribozyme fitness (log ratio)": "≤ -4.2"},
      {"variant": "GGAUCUUCUCGAUCUAACAAAAAAGACAAAUCUGCCACAAACCUUGAGAGCAUCUUCGGGUGCAGAGGCGGCAGGCUUCGGUGGCGCGAUAGCGCCAACGUUCUUAACUAUGACACGCAAAGCGCGUGCUCCGUUGAAUGGAGUUUAUCAUG", "note": "[G42C A60G C75G C105U A122G]", "polymerase ribozyme fitness (log ratio)": -4.18},
      {"variant": "GGAUCUUCUCGAUCUAACAAAAAAGACAAAUCUGCCACAAAACUUGAGAGCAUCUUCGGAUGCAGAGGCGGCAGCCUUCGGUGGCGCGAUAGCGCCAACGUUCUCAACUAUGACACGCAAAACGCGUGCUCCGUUGAAUGGAGUUUACCAUG", "note": "[G42A U148C]", "polymerase ribozyme fitness (log ratio)": "≤ -4.2"},
      {"variant": "GGAUCUUCUCGAUCUAACAAAAAAGACAAAUCUGCCACAAAACUUGAGAGCAUCUACGGAUGCAGAGGCGGCAGCCUUCGGUGGCGCGAUAGUGCCAACGUUCUCAACUAUGACACGCAAAACGCGUGCUCCGUUGAAUGGAGUUUAUCAUG", "note": "[G42A U56A C93U]", "polymerase ribozyme fitness (log ratio)": "≤ -4.2"},
      {"variant": "GGAUCUUCUCGAUCUAACAAAAAAGACAAAUCUGCCACAAACCUUGCGAGCAACUUCGGAUGCAGAGGCGGCAGCCUUCGGCGACGCGAUAGCGCCAACGUUCUCAACUAUGACACGCAAAGCGCGUGCUCCGUUGAUUGGACUUUAUCAUG", "note": "[G42C A47C U53A U82C G84A A122G A138U G143C]", "polymerase ribozyme fitness (log ratio)": "≤ -4.2"},
      {"variant": "GGAUCUUCUCGAUCUAACAAAAAAGACAAAUCUGCCACAAACUUUGAGAGCAUCUUCGGAUGCAGAGGCGGCAGCCUUCGGUGGCGCGAUUGGGCCAACGUUCUCAACUAUGACACGCAAAACGCGUGCUCCGUUGAAUGGAGUUUAUCAUG", "note": "[G42C C43U A91U C93G]", "polymerase ribozyme fitness (log ratio)": "≤ -4.2"},
      {"variant": "GGAUCUUCUCGAUCUAACAAAAAAGACAAAUCUGCCACAAACGUUGAGAGCAUCUACGUAUGCAGAGGCGGCAGCCUUCGGUGGUGCGAUAGCGCCAACGUUCUCAACUAUGACACGCAAAACGAGCGCUCCGUUGAAUGGAGUUUAUCAUG", "note": "[G42C C43G U56A G59U C85U C125A U127C]", "polymerase ribozyme fitness (log ratio)": "≤ -4.2"},
      {"variant": "GGAUCUUCUCGAUCUAACAAAAAAGACAAAUCUGCCACAAACCUUGAGGGCAUGUUCGGAUGCAGAGGCGGCAGCCUUCGGUCGUGCGAUAGCGCAAACGUUCUCAACUAUGACACGCAAAACGCGUGCUCCGUUGAAUGGAGUUUAUCAUG", "note": "[G42C A49G C54G G83C C85U C96A]", "polymerase ribozyme fitness (log ratio)": "≤ -4.2"},
      {"variant": "GGAUCUUCUCGAUCUAACAAAAAAGACAAAUCUGCCACAAACCUUGAGAGCAUCUUCGGAUGCAGAGGCGGUAGCCUUCGGUGGCGCGAUAGCGCCAACGUUCUCAACUAUGACACGCAAAACGCGUGCUCCGUUGAAUGGAGUUUAUCAUG", "note": "[G42C C72U]", "polymerase ribozyme fitness (log ratio)": "≤ -4.2"},
      {"variant": "GGAUCUUCUCGAUCUAACAAAAAAGACAAAUCUGCCACAAAACUUGAGAGCAUCUACGGUUGCAGAGGCGGCAGCAUUCGGUGGCGCGAUAGCGCAAACGUGCUCAACUAUGACACGCAAAACGCGAGCUCCGUUGAAUGUAGUUUAUCGUG", "note": "[G42A U56A A60U C76A C96A U102G U127A G141U A150G]", "polymerase ribozyme fitness (log ratio)": "≤ -4.2"},
      {"variant": "GGAUCUUCUCGAUCUAACAAAAAAGACAAAUCUGCCACAAACCUUGCGAGCAUCUUUGGAUGCAGAGGCGGCAGCCUUCGCUGGCGCGAUAGCGACAACGUUCUCAACUAUGACACGCAAAACGCGUGCUCCGUUGAAUGGAGUUUAUCAUG", "note": "[G42C A47C C57U G81C C95A]", "polymerase ribozyme fitness (log ratio)": "≤ -4.2"},
      {"variant": "GGAUCUUCUCGAUCUAACAAAAAAGACAAAUCUGCCACAAACCUUGGGAGCAUCUUAGGAUGCAGAGGCGGCAGGCUUCGGUGGCGCGAUAGCGCCAACGUUCUCAACUAUGACACGCAAAACGGGUGCUCCGUUGAAUGGAGUUUAUCAUG", "note": "[G42C A47G C57A C75G C125G]", "polymerase ribozyme fitness (log ratio)": "≤ -4.2"},
      {"variant": "GGAUCUUCUCGAUCUAACAAAAAAGACAAAUCUGCCACAAACCUUGAGAGCAUCUUCGGUUGCAGACGCGGCAGCCUUCGGUGGCGCGAUAGCGCCAACGUUCUCAACUAUGACACGCAAAACGCGUUCUCCGUUGAUUGGAGUUUAUCAUG", "note": "[G42C A60U G67C G128U A138U]", "polymerase ribozyme fitness (log ratio)": "≤ -4.2"},
      {"variant": "GGAUCUUCUCGAUCUAACAAAAAAGACAAAUCUGCCACAAACCUUGAGAGCAUCUUCGGGUGCAGAGGCGGCAGCCUUCGGUGGCGCGAUAGCGCCAACGUUCUCAACUAUGACACGCAAAACGCGUGCUCCGUUGAAUGGAGUUUAUCAUG", "note": "[G42C A60G]", "polymerase ribozyme fitness (log ratio)": -4.05},
      {"variant": "GGAUCUUCUCGAUCUAACAAAAAAGACAAAUCUGCCACAAACCUUGAGGGCAUCUUCGGAUGCAGAGGCGGCAGCCUUCGGUGGCGCGAUAGCGCCAACGUUCUCAACUAUGACACGCAAAACGCGUGCUCCGUUGACUGGAGUUUAUCAUG", "note": "[G42C A49G A138C]", "polymerase ribozyme fitness (log ratio)": "≤ -4.2"},
      {"variant": "GGAUCUUCUCGAUCUAACAAAAAAGACAAAUCUGCCACAAAACUUGAGAGCAUCUUCGGAAGCAGAGGCGGCAGCCUUCGGUGGCACGAUAGCGCCAACGUUCUCAACUAUGACACGCAAAACGCGUGCUCCGUUCAAUGGAGUUUAUCAUG", "note": "[G42A U61A G86A G136C]", "polymerase ribozyme fitness (log ratio)": "≤ -4.2"},
      {"variant": "GGAUCUUCUCGAUCUAACAAAAAAGACAAAUCUGCCACAAACCUUGAGAGCAUGUUCGGAUGCAGAGGCGGCAGCCUUCGGUGGCGCGAUUGCGCCAACGUUCUCAACUAUGACACGCAAAACACGUGCUGCGUUGAAUGGAGUUUAUCAUG", "note": "[G42C C54G A91U G124A C131G]", "polymerase ribozyme fitness (log ratio)": "≤ -4.2"}
    ]}
  ]
}
